Measurements published in US20170008937.

Biological target: GST-Rac1 (UniProt P63000)

Substance: TcdASAS (Clostridium difficile toxin A with VNN mutated to SAS: V1109S, N1110A, N1111S)
- Rac1 glucosylation in vitro (Western blot, 100 nM toxin, 3 hours): not impaired in their capacity to glucosylate Rac1 in vitro
